Article PMC12908882 (Molecular cancer therapeutics, 2026)

Key:
[1] = target: Human L1CAM Ig-like domains, residues 21-605, C-terminal 6x His tag (Homo sapiens, UniProt P32004); assay: BLI
[2] = target: Human L1CAM expressed on transfected HEK293T cells (HEK293T-L1CAM cells) (Homo sapiens, UniProt P32004); assay: flow cytometry on cells
[3] = target: Extracellular domain of human L1CAM fused to a poly-histidine tag (L1CAM-His) (Homo sapiens, UniProt P32004); assay: BLI
[4] = target: His-tagged, monomeric mouse L1CAM protein (Mus musculus, UniProt P11627); assay: BLI
His-tagged, monomeric mouse L1CAM protein, sequence (P11627 whole entry, looked up, the tested form may be a part): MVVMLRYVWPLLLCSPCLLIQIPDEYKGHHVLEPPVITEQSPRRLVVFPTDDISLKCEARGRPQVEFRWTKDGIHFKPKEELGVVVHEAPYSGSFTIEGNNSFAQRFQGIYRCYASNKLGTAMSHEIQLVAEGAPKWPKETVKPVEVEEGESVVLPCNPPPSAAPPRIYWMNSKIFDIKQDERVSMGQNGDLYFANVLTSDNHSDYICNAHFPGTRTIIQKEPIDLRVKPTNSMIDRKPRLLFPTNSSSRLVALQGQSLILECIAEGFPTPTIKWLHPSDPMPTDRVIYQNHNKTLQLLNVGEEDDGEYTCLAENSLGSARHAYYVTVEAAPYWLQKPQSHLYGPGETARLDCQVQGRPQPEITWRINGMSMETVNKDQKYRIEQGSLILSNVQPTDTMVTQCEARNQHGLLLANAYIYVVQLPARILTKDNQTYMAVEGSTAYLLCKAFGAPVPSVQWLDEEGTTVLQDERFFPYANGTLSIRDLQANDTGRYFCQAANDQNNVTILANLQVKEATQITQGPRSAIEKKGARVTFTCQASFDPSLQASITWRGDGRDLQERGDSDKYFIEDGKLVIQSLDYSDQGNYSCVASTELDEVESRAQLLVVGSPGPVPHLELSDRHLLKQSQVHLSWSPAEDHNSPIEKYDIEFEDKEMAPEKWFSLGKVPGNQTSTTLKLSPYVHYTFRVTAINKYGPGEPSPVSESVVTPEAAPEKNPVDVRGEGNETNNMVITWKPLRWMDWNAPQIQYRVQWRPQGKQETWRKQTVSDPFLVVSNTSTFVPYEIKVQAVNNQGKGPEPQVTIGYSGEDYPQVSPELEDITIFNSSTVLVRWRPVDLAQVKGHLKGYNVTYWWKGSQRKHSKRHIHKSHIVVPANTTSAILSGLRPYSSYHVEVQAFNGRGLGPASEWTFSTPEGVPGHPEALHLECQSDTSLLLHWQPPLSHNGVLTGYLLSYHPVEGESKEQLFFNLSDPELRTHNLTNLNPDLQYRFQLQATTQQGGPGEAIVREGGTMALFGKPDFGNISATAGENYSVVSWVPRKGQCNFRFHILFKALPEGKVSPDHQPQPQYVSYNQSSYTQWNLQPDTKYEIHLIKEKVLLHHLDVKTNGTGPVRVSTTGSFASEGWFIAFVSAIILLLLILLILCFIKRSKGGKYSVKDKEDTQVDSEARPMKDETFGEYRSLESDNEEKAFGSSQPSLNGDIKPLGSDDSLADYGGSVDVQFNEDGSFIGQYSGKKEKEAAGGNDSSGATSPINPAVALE

[5] = target: Human L1CAM fibronectin-like type III (FNIII) repeats, residues 606-1116, C-terminal 6x His tag (Homo sapiens, UniProt P32004); assay: BLI
Human L1CAM fibronectin-like type III (FNIII) repeats, residues 606-1116, C-terminal 6x His tag, sequence (P32004 606-1116): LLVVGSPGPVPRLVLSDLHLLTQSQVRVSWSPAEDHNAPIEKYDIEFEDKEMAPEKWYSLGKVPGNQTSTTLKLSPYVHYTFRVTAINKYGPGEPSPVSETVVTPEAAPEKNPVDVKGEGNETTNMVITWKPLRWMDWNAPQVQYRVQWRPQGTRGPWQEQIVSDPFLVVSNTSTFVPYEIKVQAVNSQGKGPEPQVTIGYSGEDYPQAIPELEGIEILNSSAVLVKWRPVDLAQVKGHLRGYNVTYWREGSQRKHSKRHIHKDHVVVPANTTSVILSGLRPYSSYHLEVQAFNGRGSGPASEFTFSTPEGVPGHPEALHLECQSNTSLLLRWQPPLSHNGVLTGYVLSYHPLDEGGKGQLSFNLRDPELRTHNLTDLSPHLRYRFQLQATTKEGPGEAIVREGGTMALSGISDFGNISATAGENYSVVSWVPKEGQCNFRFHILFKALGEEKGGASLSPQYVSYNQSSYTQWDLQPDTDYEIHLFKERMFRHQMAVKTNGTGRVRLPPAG

Measured: binding result

Human L1CAM expressed on transfected HEK293T cells (HEK293T-L1CAM cells), sequence (P32004 20-1257): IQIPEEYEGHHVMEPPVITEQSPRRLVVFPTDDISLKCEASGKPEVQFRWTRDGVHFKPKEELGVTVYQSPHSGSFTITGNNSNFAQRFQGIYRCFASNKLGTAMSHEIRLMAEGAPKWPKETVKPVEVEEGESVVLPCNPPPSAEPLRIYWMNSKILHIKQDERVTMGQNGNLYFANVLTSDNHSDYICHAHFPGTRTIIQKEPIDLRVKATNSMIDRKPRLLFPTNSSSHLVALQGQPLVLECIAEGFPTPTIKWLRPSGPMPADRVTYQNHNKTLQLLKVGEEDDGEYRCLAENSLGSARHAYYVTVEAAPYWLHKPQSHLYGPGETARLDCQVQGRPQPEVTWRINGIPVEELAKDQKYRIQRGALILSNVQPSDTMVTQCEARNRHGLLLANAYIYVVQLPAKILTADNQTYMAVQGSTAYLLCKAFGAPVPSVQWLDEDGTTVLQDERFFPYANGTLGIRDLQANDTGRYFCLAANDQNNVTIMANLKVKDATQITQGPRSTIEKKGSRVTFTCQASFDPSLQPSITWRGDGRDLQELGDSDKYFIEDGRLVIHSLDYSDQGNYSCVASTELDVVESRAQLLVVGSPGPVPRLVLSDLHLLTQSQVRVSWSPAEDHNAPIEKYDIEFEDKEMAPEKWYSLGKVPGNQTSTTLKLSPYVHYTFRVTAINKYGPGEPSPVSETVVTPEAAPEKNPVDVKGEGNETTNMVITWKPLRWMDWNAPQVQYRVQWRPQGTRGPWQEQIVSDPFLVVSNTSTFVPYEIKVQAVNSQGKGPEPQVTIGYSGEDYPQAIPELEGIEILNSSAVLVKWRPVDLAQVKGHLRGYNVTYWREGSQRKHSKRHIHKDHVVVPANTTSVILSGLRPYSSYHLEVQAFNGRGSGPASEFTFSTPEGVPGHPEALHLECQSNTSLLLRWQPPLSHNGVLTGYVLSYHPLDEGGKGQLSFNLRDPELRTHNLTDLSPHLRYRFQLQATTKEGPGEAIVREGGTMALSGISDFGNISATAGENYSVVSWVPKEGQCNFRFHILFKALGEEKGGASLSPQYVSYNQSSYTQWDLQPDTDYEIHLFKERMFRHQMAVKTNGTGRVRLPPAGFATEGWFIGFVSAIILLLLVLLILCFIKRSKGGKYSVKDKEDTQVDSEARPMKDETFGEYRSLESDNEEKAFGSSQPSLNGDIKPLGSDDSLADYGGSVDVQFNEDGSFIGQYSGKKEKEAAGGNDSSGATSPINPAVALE
Human L1CAM Ig-like domains, residues 21-605, C-terminal 6x His tag, sequence (P32004 21-605): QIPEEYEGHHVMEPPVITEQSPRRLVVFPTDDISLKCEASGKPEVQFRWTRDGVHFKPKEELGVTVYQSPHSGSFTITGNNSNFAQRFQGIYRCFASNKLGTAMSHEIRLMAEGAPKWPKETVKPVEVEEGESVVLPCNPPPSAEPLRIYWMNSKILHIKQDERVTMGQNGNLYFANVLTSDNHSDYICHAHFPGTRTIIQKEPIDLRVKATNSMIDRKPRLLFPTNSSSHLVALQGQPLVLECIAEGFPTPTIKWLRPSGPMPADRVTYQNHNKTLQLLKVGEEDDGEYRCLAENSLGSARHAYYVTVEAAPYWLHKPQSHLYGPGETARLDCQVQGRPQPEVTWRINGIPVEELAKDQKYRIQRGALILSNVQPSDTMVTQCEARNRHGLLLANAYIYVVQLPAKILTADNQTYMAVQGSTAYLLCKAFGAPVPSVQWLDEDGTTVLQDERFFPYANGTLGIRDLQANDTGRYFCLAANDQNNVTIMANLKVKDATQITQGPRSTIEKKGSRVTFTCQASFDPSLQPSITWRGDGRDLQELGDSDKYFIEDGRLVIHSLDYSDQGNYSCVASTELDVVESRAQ
Extracellular domain of human L1CAM fused to a poly-histidine tag (L1CAM-His), sequence (P32004 20-1120): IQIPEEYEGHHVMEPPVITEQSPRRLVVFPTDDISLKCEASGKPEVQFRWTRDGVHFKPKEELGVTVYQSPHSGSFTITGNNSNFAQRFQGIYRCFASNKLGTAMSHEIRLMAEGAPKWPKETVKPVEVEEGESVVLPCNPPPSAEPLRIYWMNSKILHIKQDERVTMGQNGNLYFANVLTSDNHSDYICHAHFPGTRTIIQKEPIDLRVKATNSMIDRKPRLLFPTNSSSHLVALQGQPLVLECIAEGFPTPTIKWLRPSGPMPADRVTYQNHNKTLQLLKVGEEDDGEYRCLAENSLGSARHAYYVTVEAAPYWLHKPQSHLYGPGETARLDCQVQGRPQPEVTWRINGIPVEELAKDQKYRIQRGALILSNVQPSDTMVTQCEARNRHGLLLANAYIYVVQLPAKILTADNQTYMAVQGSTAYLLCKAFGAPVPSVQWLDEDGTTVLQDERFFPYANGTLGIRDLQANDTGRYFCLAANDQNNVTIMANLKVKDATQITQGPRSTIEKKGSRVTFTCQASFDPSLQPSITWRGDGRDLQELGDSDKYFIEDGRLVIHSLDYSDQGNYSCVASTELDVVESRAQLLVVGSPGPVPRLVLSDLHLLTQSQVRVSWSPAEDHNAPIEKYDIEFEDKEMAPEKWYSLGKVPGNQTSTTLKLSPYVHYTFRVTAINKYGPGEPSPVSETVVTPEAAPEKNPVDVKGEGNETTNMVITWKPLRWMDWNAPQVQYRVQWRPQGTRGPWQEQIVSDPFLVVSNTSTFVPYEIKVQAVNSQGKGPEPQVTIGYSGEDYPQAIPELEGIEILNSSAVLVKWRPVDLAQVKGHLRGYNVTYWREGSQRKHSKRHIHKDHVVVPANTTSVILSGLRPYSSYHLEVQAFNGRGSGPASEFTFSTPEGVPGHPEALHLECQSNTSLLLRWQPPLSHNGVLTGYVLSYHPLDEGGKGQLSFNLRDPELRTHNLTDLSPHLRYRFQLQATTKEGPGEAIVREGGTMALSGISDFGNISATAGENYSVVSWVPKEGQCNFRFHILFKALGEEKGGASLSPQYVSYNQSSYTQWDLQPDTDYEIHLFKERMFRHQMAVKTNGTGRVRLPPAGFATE

B1: 13F04 monoclonal antibody to human L1CAM (antibody, V domains shown)
VH: QVQLQQPGAELVKPGASVKLSCKASGYIFISYWMHWVKQRPGQGLEWIGEINPRNGRTNYNEKFKSKATLTVDKSSSTAYMQLTSLTSEDSAVYYCARGGDYGGSFDYWGQGTTLTVSS
VL: DIVLTQSPASLAVSLGQRATISCRASESVDSYGNSFMHWYQQKPGQPPKLLIYRASNLESGIPARFSGSGSRTDFTLTVNPVEADDVATYYCQQSNEDPWTFGGGTKLEIK
binds: [1] | [2]

B2: 14A10 monoclonal antibody to human L1CAM (antibody, V domains shown)
VH: EVQMVESGGGLVQPGGSLRLSCAAPGFIFSSYNMNWVRQAPGKGLEWVSYISSSSSTTYYADSVKGRFTISRDNAKNSLYLQMNSLRDEDTAVYYCASLYSGYDYYYYYGMDVWGQGTTVTVSS
VL: DIVMTQTPLSSPVSLGQPASISCRSSQSLVHSDGNTYLSWLQQRPGQPPRVLIYKISKRFSGVPDRFSGSGAGTDFTLKISRVEAEDVGVYYCMQATQFPFTFGPGTKVDIK
binds: [1] | [3] | [4] | [2]

B3: 143G03 monoclonal antibody to human L1CAM (antibody, V domains shown)
VH: QVQLVQSGAEVKKPGSSVKVSCKASGYTFTNYYIHWVRQAPGQGLEWMGKIGPGSGSPYYQGMFKDRVTITADESTSTAYMELSSLRSEDTAVYYCARWLLPFDYWGQGTLVTVSS
VL: EIVLTQSPGTLSLSPGERATLSCRASSSVNYMHWYQQKPGQAPRLLIYATSILASGIPDRFSGSGSGTDYTLTISRLEPEDFAVYYCQQFSSDPLTFGGGTKVEIK
binds: [5] | [3] | [2]
